According to patent publication JP2005027671A (dated 2005):
Positions count from the first letter of the chain named.

What was measured:
可溶性ヒトVEGF受容体KDR 7N [1] = biological target: T1, 可溶性ヒトVEGF受容体KDR 7N (human, UniProt P35968 20-757); assay: ELISA, coated antigen 4 ug/ml
T1 construct: range 1-738; The range 1-738 counts on the mature protein (after the 19-residue signal peptide)

可溶性ヒトVEGF受容体Flt-1 7N = biological target: T2, 可溶性ヒトVEGF受容体Flt-1 7N (human, UniProt P17948 27-750); assay: inhibition of 125I-VEGF binding to coated Flt-1 7N, purified antibody
T2 construct: range 1-750; also called 可溶性ヒトFlt-1 7N

ヒトVEGF受容体Flt-1(細胞表面発現) = biological target: T3, ヒトVEGF受容体Flt-1(細胞表面発現) (human, UniProt P17948 27-1338); assay: inhibition of 125I-VEGF binding to NIH3T3-Flt-1 cells, purified antibody
T3 construct: whole, on cells; also called NIH3T3-Flt-1細胞; ヒトVEGF受容体Flt-1発現NIH3T3細胞

可溶性ヒトVEGF受容体KDR 7N [2] = biological target: T1, 可溶性ヒトVEGF受容体KDR 7N; assay: ELISA, coated antigen 4 ug/ml, antibody titrated
可溶性ヒトVEGF受容体KDR 7N [3] = biological target: T1, 可溶性ヒトVEGF受容体KDR 7N; assay: ELISA, coated antigen from 10 ug/ml in 3-fold dilutions

T1 sequence (P35968 20-757): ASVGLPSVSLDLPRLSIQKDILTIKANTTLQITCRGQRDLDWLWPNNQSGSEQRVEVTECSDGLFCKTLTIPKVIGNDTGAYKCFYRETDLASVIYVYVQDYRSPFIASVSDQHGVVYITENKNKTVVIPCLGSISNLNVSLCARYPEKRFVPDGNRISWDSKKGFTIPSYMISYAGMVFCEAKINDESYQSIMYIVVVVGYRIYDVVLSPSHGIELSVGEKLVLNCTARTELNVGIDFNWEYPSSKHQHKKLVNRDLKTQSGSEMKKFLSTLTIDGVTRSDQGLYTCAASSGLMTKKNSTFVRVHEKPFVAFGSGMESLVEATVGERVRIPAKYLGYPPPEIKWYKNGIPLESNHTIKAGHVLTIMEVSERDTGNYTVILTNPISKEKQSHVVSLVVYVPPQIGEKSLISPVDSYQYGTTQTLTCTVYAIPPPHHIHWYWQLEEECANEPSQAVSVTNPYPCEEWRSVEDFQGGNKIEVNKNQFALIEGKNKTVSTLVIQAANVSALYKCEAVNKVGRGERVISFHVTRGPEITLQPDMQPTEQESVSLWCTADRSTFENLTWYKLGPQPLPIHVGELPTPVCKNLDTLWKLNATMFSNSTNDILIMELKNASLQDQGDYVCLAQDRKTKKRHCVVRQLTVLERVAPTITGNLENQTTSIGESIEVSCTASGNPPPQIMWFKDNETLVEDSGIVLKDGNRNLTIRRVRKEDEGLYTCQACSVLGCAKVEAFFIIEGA

B1: 抗ヒトVEGF受容体Flt-1マウスモノクローナル抗体KM1750 (antibody, V domains shown)
VH: QAFLQQSGAELVRPGASVKMSCKASGYTFINYNMHWVKQTPRQGLEWIGAIFPGNGFTSYNQKFKGKATLTVDKSSSTVYMQLRSLTSEDSAVYFCARDGDYYFDYWGQGTTLTVSS
VL: QIVLTQSPAIMSASLGEEITLTCSASSSVSYMHWYQQKSGTSPKLLIYRTSNLASGVPFRFSGSGSGTFYSLTISSVEAEDAADYYCHQWSMYTFGGGTKLEIK
notes: cDNAs were cloned with mouse Cgamma1 and Ckappa probes; also called FERM BP-5700
For B1, the binding result (可溶性ヒトVEGF受容体KDR 7N [1]) was “no binding (tested: 0.1μg/ml)”, the IC50 (可溶性ヒトVEGF受容体Flt-1 7N) was 2 µg/mL and the IC50 (ヒトVEGF受容体Flt-1(細胞表面発現)) was 0.041 µg/mL.

B2: 抗ヒトVEGF受容体Flt-1ヒト型キメラ抗体KM2550 (antibody, V domains shown)
VH: B1 VH
VL: B1 VL
notes: Expressed in YB2/0 cells; also called pKANTEX1750
B2: no binding (tested: 0.0152〜100ng/ml) (可溶性ヒトVEGF受容体KDR 7N [2]).

B3: 抗ヒトVEGF受容体Flt-1マウスモノクローナル抗体KM1732 (antibody, V domains shown)
VH: QGQMQQSGAELVKPGASVKLSCKPSGFTFSSNYISWLKQKPGQSLEWIAWIYAGTGDASYNQKFTAKAHVTVDTSSSTAYMQLSSLTTEDSAIYYCARHGGDGYWFAYWGQGTLVTVSA
VL: QLVLTQSPAIMSASQGEKVTMTCSASSSVSYMHWYQQKSGTSPKRWIYDTSKLPSGVPARFSGSGSGTSYSLTISSMEAEDAATYYCQQWSSNPPTFGAGTKLELK
notes: Mouse hybridoma IgG (Balb/c mouse immunised with Flt-1 7N, screened on Flt-1 3N); cDNAs were cloned with mouse Cgamma1 and Ckappa probes; also called FERM BP-5698
In the case of B3, the binding result (可溶性ヒトVEGF受容体KDR 7N [1]) is reported as “no binding (tested: 0.1μg/ml)”, the IC50 (可溶性ヒトVEGF受容体Flt-1 7N) is reported as 1.1 µg/mL and the IC50 (ヒトVEGF受容体Flt-1(細胞表面発現)) is reported as 0.05 µg/mL.

B4: 抗ヒトVEGF受容体Flt-1ヒト型キメラ抗体KM2532 (antibody, V domains shown)
VH: B3 VH
VL: B3 VL
notes: Expressed in YB2/0 cells; also called pKANTEX1732
B4: no binding (tested: 0.0152〜100ng/ml) (可溶性ヒトVEGF受容体KDR 7N [2]).

B5: 抗ヒトVEGF受容体Flt-1ヒト型CDR移植抗体KM8550 (antibody, V domains shown)
VH: QVQLVQSGAEVKKPGASVKVSCKASGYTFINYNMHWVRQAPGQGLEWMGAIFPGNGFTSYNQKFKGRVTITVDKSTSTAYMELSSLRSEDTAVYYCARDGDYYFDYWGQGTLVTVSS
VL: DIQMTQSPSSLSASVGDRVTITCSASSSVSYMHWYQQKPGKAPKLLIYRTSNLASGVPSRFSGSGSGTDFTLTISSLQPEDFATYYCHQWSMYTFGQGTKVEIK
notes: CDR-grafted IgG derived from KM1750; also called pKANTEX1750HV0LV0(I); 1750HV0 + 1750LV0(I)
B5: no binding (tested: 5μg/ml) (可溶性ヒトVEGF受容体KDR 7N [3]).

B6: 抗ヒトVEGF受容体Flt-1ヒト型CDR移植抗体KM8551 (antibody, V domains shown)
VH: B5 VH
VL: DIVMTQSPDSLAVSLGERATINCSASSSVSYMHWYQQKPGQPPKLLIYRTSNLASGVPDRFSGSGSGTDFTLTISSLQAEDVAVYYCHQWSMYTFGQGTKVEIK
notes: CDR-grafted IgG derived from KM1750; also called pKANTEX1750HV0LV0(IV); 1750HV0 + 1750LV0(IV)
B6: no binding (tested: 5μg/ml) (可溶性ヒトVEGF受容体KDR 7N [3]).

B7: 抗ヒトVEGF受容体Flt-1ヒト型CDR移植抗体KM8552 (antibody, V domains shown)
VH: B5 VH with E82Q, S84R, Y95F
VL: B5 VL
notes: CDR-grafted IgG derived from KM1750 with modified VH framework; also called pKANTEX1750HV3LV0(I); 1750HV3 + 1750LV0(I)
B7: no binding (tested: 5μg/ml) (可溶性ヒトVEGF受容体KDR 7N [3]).

B8: 抗ヒトVEGF受容体Flt-1ヒト型CDR移植抗体KM8554 (antibody, V domains shown)
VH: B5 VH
VL: B5 VL with D17E, R18E, D69F, F70Y
notes: CDR-grafted IgG derived from KM1750 with modified VL framework; also called pKANTEX1750HV0LV4; 1750HV0 + 1750LV4
B8: no binding (tested: 5μg/ml) (可溶性ヒトVEGF受容体KDR 7N [3]).

B9: 抗ヒトVEGF受容体Flt-1ヒト型CDR移植抗体KM8553 (antibody, V domains shown)
VH: B5 VH with E82Q, S84R, Y95F
VL: B6 VL
notes: CDR-grafted IgG derived from KM1750 with modified VH framework; also called pKANTEX1750HV3LV0(IV); 1750HV3 + 1750LV0(IV)
B9: no binding (tested: 5μg/ml) (可溶性ヒトVEGF受容体KDR 7N [3]).

B10: 抗ヒトVEGF受容体Flt-1ヒト型CDR移植抗体KM8555 (antibody, V domains shown)
VH: B5 VH with E82Q, S84R, Y95F
VL: B5 VL with D17E, R18E, D69F, F70Y
notes: CDR-grafted IgG derived from KM1750 with modified VH and VL frameworks; also called pKANTEX1750HV3LV4; 1750HV3 + 1750LV4
B10: no binding (tested: 5μg/ml) (可溶性ヒトVEGF受容体KDR 7N [3]).
